Target: mouse PD-L1 (surface receptor on LLC-JSP and 4T1 murine cancer cells) (mouse) (UniProt Q9EP73)
Test: flow cytometry uptake of dye-siRNA tagged p-iPLK1-NP by 4T1 cells, 1 h exposure (FIG. 11B)

Sequence of mouse PD-L1 (surface receptor on LLC-JSP and 4T1 murine cancer cells) (mouse) (Q9EP73 19-290): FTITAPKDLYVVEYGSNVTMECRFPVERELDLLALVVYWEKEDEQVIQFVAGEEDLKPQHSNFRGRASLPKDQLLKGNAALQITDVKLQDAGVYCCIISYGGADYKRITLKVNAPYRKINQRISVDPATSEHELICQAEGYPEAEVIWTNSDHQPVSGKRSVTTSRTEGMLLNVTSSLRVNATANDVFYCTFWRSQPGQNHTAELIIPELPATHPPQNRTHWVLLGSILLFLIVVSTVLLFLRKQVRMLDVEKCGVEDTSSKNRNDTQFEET

- cellular uptake, PD-L1 high cells vs. PD-L1 low cells (fold): 4 fold
Substance: p-iPLK1-NP (mesoporous silica nanoparticle coated with PEI and PEG, loaded with PLK1 inhibitor volasertib and conjugated with mouse PD-L1 antibody)

Reference: US20260124210A1
